This note sets out measurements from the FLAb antibody collection (doi:10.7554/elife.23156).

B1: scFv; the commonest letter at each place (parent)
chain 1: EVKLDETGGGLVQPGRPMKLSCVASGFTFSDYWMNWVRQSPEKGLEWVAQIRNKPYNYETYYSDSVKGRFTISRDDSKSSVYLQMNNLRVEDMGIYYCTGSYYGMDYWGQGTSVTVS
chain 2: DVVMTQTPLSLPVSLGDQASISCRSSQSLVHSNGNTYLRWYLQKPGQSPKVLIYKVSNRFSGVPDRFSGSGSGTDFTLKISRVEAEDLGVYFCSQSTHVPWTFGGGTKLEIK

The variants in the data set “fluorescein” derive from B1. In words: Kd (Tite-Seq). The note with it: with fluorescein; format: scFv 4-4-20, heavy + light.
Variants of B1 are the subject of data set [1]. In words: yeast surface expression (ratio to wild type); higher = more expressed. Particulars: format: scFv 4-4-20, heavy + light.

By Kd is commonly meant the constant that tells how readily two partners part at equilibrium. For chain 1 Y103R M105K, the Kd in the data set with fluorescein was found to be 0.00493 µM. Moreover, the yeast surface expression in data set [1] came to 0.768.

In the case of chain 1 Y103W G109S, the equilibrium dissociation constant (Kd) with fluorescein was at least 10 µM. Moreover, the yeast surface expression in data set [1] is 0.653.

On to chain 1 Y103W G109A, for which the Kd with fluorescein is at least 10 µM. The yeast surface expression in data set [1] was 0.557.

Regarding chain 1 Y103N M105G Y107M, the Kd in the data set with fluorescein is at least 10 µM. In data set [1], the yeast surface expression is 0.836.

For the variant chain 1 Y103T W108S, the Kd with fluorescein was at least 10 µM. Further, the yeast surface expression in data set [1] was found to be 0.244.

With chain 1 Y103T W108P, in the data set with fluorescein, the Kd was at least 10 µM. In data set [1], the yeast surface expression came to 0.468.

chain 1 Y103S M105R: the Kd in the data set with fluorescein amounted to 0.176 µM. The yeast surface expression in data set [1] was 0.819.

Take chain 1 Y107S W108S: the Kd with fluorescein was at least 10 µM. The yeast surface expression in data set [1] is 0.484.

In the case of chain 1 Y107S W108D, the Kd with fluorescein is at least 10 µM. Further, in data set [1], the yeast surface expression amounted to 0.322.

In the case of chain 1 Y107D W108N, the Kd in the data set with fluorescein is at least 10 µM. In data set [1], the yeast surface expression is 0.477.

Take chain 1 Y107D W108C: in the data set with fluorescein, the Kd is at least 10 µM. In data set [1], the yeast surface expression was determined as 0.269.

Take chain 1 Y107D W108Q: the Kd with fluorescein is at least 10 µM. Moreover, the yeast surface expression in data set [1] amounted to 0.706.

Consider chain 1 Y103Q W108A, for which, in the data set with fluorescein, the Kd stood at 0.712 µM. In data set [1], the yeast surface expression turned out to be 0.644.

As to chain 1 Y103Q W108N, the Kd with fluorescein is at least 10 µM. For the same variant, in data set [1], the yeast surface expression is 0.415.

For chain 1 Y103T D106Y, the Kd in the data set with fluorescein was at least 10 µM. Also, the yeast surface expression in data set [1] amounted to 0.37.

For the variant chain 1 Y103T D106S, in the data set with fluorescein, the Kd is at least 10 µM. Moreover, the yeast surface expression in data set [1] was determined as 0.883.

Take chain 1 Y103T D106R: the Kd with fluorescein is at least 10 µM. For the same variant, the yeast surface expression in data set [1] is 0.311.

As for chain 1 Y107P W108A, in the data set with fluorescein, the Kd is at least 10 µM. For the same variant, the yeast surface expression in data set [1] was 0.455.

In the case of chain 1 Y103S W108R, the Kd with fluorescein is at least 10 µM. The yeast surface expression in data set [1] came out at 0.441.

Take chain 1 Y107F W108E: the Kd in the data set with fluorescein was at least 10 µM. For the same variant, the yeast surface expression in data set [1] stood at 0.411.

As for chain 1 Y107N W108D G109C, the Kd with fluorescein was at least 10 µM. Besides, the yeast surface expression in data set [1] was found to be 0.313.

As to chain 1 Y107I G109K, the Kd with fluorescein is at least 10 µM. For the same variant, the yeast surface expression in data set [1] came out at 0.234.

In the case of chain 1 Y107I G109Q, in the data set with fluorescein, the Kd was at least 10 µM. The yeast surface expression in data set [1] was 0.442.

In the case of chain 1 Y103N G104F, the Kd in the data set with fluorescein was at least 10 µM. For the same variant, the yeast surface expression in data set [1] was 0.839.

With chain 1 Y103N G104T, the Kd in the data set with fluorescein was at least 10 µM. Also, the yeast surface expression in data set [1] was 0.851.

For the variant chain 1 Y103N G104P, in the data set with fluorescein, the Kd is at least 10 µM. In data set [1], the yeast surface expression turned out to be 0.478.

Take chain 1 Y103N G104Q: the Kd in the data set with fluorescein was at least 10 µM. Further, in data set [1], the yeast surface expression stood at 0.766.

In the case of chain 1 Y107T G109C, the Kd with fluorescein was at least 10 µM. The yeast surface expression in data set [1] was found to be 0.278.

As for chain 1 Y103R G109I, the Kd in the data set with fluorescein was at least 10 µM. For the same variant, in data set [1], the yeast surface expression stood at 0.291.

For chain 1 Y103R G109V, the Kd with fluorescein is at least 10 µM. The yeast surface expression in data set [1] is 0.47.

Consider chain 1 Y107E G109E, for which the Kd with fluorescein is at least 10 µM. Further, the yeast surface expression in data set [1] is 0.288.

With chain 1 Y103Q D106M, the Kd with fluorescein is at least 10 µM. In data set [1], the yeast surface expression came out at 0.805.

Turning to chain 1 Y103P, the Kd in the data set with fluorescein is at least 10 µM. Besides, in data set [1], the yeast surface expression stood at 0.791.

chain 1 Y103T: the Kd with fluorescein came to 2.35 µM. The yeast surface expression in data set [1] came out at 0.896.

As for chain 1 Y103S, the equilibrium dissociation constant (Kd) with fluorescein stood at 0.0318 µM. Also, the yeast surface expression in data set [1] came to 1.05.

Consider chain 1 Y103R, for which, in the data set with fluorescein, the Kd was determined as 0.00444 µM. The yeast surface expression in data set [1] was 0.971.

As for chain 1 Y103W, the Kd in the data set with fluorescein amounted to 0.228 µM. Moreover, the yeast surface expression in data set [1] is 0.862.

Turning to chain 1 Y103V, the Kd with fluorescein is 0.0158 µM. Moreover, the yeast surface expression in data set [1] was found to be 0.701.

On to chain 1 Y103N, for which the Kd with fluorescein worked out at 0.00708 µM. In addition, the yeast surface expression in data set [1] was found to be 1.17.

For chain 1 Y103Q, the Kd with fluorescein was determined as 0.0199 µM. The yeast surface expression in data set [1] is 1.33.

chain 1 Y103P M105K: in the data set with fluorescein, the Kd was at least 10 µM. Further, the yeast surface expression in data set [1] was 0.785.

With chain 1 Y103V G109L, the Kd in the data set with fluorescein was at least 10 µM. Besides, the yeast surface expression in data set [1] worked out at 0.247.

On to chain 1 Y103S G104D, for which the Kd with fluorescein was at least 10 µM. For the same variant, in data set [1], the yeast surface expression was found to be 1.12.

As for chain 1 Y103S G104N, the Kd with fluorescein is at least 10 µM. Moreover, the yeast surface expression in data set [1] came to 1.04.

chain 1 Y103W G104F M105E: the Kd in the data set with fluorescein was at least 10 µM. The yeast surface expression in data set [1] was 0.578.

For the variant chain 1 Y103W G104P, the Kd with fluorescein was at least 10 µM. Further, in data set [1], the yeast surface expression worked out at 1.

Take chain 1 Y107C W108V: in the data set with fluorescein, the Kd amounted to 0.00468 µM. Besides, the yeast surface expression in data set [1] was found to be 0.304.

On to chain 1 Y107W G109K, for which the Kd with fluorescein was at least 10 µM. Moreover, the yeast surface expression in data set [1] was determined as 0.336.

Regarding chain 1 Y103W M105T, in the data set with fluorescein, the Kd is at least 10 µM. The yeast surface expression in data set [1] amounted to 0.915.

Consider chain 1 Y103V W108Y, for which the Kd in the data set with fluorescein worked out at 0.0011 µM. The yeast surface expression in data set [1] was 0.619.

On to chain 1 Y103P D106T W108C, for which the Kd with fluorescein is at least 10 µM. The yeast surface expression in data set [1] was 0.258.

For the variant chain 1 Y103T M105H, in the data set with fluorescein, the Kd is at least 10 µM. Also, the yeast surface expression in data set [1] worked out at 0.849.

Turning to chain 1 Y107P G109N, in the data set with fluorescein, the Kd was at least 10 µM. Moreover, the yeast surface expression in data set [1] amounted to 0.355.

As for chain 1 Y107E W108K, the Kd in the data set with fluorescein is at least 10 µM. In data set [1], the yeast surface expression turned out to be 0.513.

In the case of chain 1 Y107E W108E, in the data set with fluorescein, the Kd was at least 10 µM. In data set [1], the yeast surface expression came to 0.485.

Take chain 1 Y103Q G104N: the Kd with fluorescein is at least 10 µM. The yeast surface expression in data set [1] turned out to be 0.905.

For chain 1 Y107V G109E, in the data set with fluorescein, the Kd was at least 10 µM. The yeast surface expression in data set [1] is 0.339.

For the variant chain 1 Y107V W108Y, in the data set with fluorescein, the Kd was found to be 0.000688 µM. Moreover, the yeast surface expression in data set [1] turned out to be 0.724.

For the variant chain 1 Y107V W108D, the Kd with fluorescein is at least 10 µM. Besides, the yeast surface expression in data set [1] came to 0.425.

As for chain 1 Y107V W108R, the Kd with fluorescein was at least 10 µM. For the same variant, in data set [1], the yeast surface expression was determined as 0.492.

Turning to chain 1 Y103M Y107W, in the data set with fluorescein, the Kd was determined as 0.00204 µM. Further, in data set [1], the yeast surface expression was 0.871.

As to chain 1 Y107F G109E, the Kd with fluorescein was at least 10 µM. The yeast surface expression in data set [1] turned out to be 0.259.

As to chain 1 Y107F G109N, in the data set with fluorescein, the Kd was at least 10 µM. In data set [1], the yeast surface expression came out at 0.555.

In the case of chain 1 Y103T G104Q, the Kd in the data set with fluorescein was at least 10 µM. In addition, the yeast surface expression in data set [1] worked out at 0.9.

Turning to chain 1 Y103T G104W, in the data set with fluorescein, the Kd is at least 10 µM. Moreover, the yeast surface expression in data set [1] was 0.534.

Take chain 1 Y103W M105L G109W: the Kd in the data set with fluorescein is at least 10 µM. In data set [1], the yeast surface expression amounted to 0.199.

For chain 1 Y107H W108T, in the data set with fluorescein, the Kd came out at 0.000989 µM. In addition, in data set [1], the yeast surface expression is 0.924.

In the case of chain 1 Y103V Y107V, the Kd with fluorescein is at least 10 µM. The yeast surface expression in data set [1] was 0.603.

With chain 1 Y103V Y107M, the Kd with fluorescein is at least 10 µM. In addition, the yeast surface expression in data set [1] came out at 0.53.

Consider chain 1 Y107I W108S, for which, in the data set with fluorescein, the Kd is at least 10 µM. The yeast surface expression in data set [1] turned out to be 0.786.

Take chain 1 Y107I W108R: the Kd with fluorescein is at least 10 µM. For the same variant, the yeast surface expression in data set [1] was 0.466.

In the case of chain 1 Y107G W108A, the Kd in the data set with fluorescein is at least 10 µM. In addition, in data set [1], the yeast surface expression is 0.528.

For the variant chain 1 Y103S D106K, in the data set with fluorescein, the Kd was at least 10 µM. The yeast surface expression in data set [1] worked out at 0.311.

For chain 1 Y103S D106H, the Kd in the data set with fluorescein was at least 10 µM. The yeast surface expression in data set [1] was 0.542.

Take chain 1 Y103Q M105G: in the data set with fluorescein, the equilibrium dissociation constant (Kd) was at least 10 µM. For the same variant, in data set [1], the yeast surface expression is 0.906.

On to chain 1 Y103Q M105Q, for which the Kd with fluorescein amounted to 4.37 µM. In data set [1], the yeast surface expression worked out at 1.14.
